Biological target: C-terminal polyP binding domain of the E. coli exopolyphosphatase (EcPPXc) (E. coli strain K12)
Assay: SEC; analytical SE-UPLC, BEH200 4.6 x 300 mm column (Waters), running buffer 10 mM NaH2PO4, 400 mM (NH4)2SO4, pH 6.2; retention time compared with 158 kDa and 44 kDa standards

- stoichiometry N: 2
Substance: C-terminal polyP binding domain of the E. coli exopolyphosphatase (EcPPXc) (domain or fragment)
